In series [1] the target is Vibrio vulnificus FrsA, wild type, SEQ ID NO: 2, + dephospho-IIA^Glc (Vibrio vulnificus, UniProt Q8DF91). Nature of the series: FrsA pyruvate decarboxylation in the presence of dephospho-IIA^Glc. Format: biochemical. The source says:
(§1) Genomic DNA from V. vulnificus(3) was used as template and as primers Crrexp-F (5′-[…]-3′(SEQ ID NO: 13); BamHI restriction site is underlined) and Crrexp-R (5′-[…]-′3(SEQ ID NO: 14); PstI restriction site is underlined) are used to amplify crr gene of 522-bp in size encoding full length IIA^Glc. The amplified products were then digested with BamHI and PstI and cloned into a vector pQE30 to obtain pQE-crr. Phosphorylated and non-phosphorylated recombinant IIA^Glc proteins were overexpressed in E. coli JM109 in a medium comprising 1.0 mM phophoenolpyruvate or 1.0% glucose, respectively. […]
(§2) FrsA enzymatic analysis was performed in 50 mM sodium phosphate solution (pH 7.0) containing 1 mM DTT and various concentrations of pyruvate. […] The residual NADH in the reaction mixture was determined by measuring absorption at 340 nm. […] The amount of carbon dioxide dissolved in the reaction solution was quantified by spectrophotometry after the reaction solution was treated with 10 mM calcium hydroxide (10). Concentrations of the pyruvate and acetaldehyde in the cell lysates and reaction mixtures were determined using Pyruvate Assay Lit (BioVision, USA) and Acetaldehyde UV-method kit (Roche, USA), respectively according to the manufacturer's instruction. […]
(§3) Values of Km and Kcat were calculated as follows. […]

Series [2] concerns the target Vibrio vulnificus FrsA, wild type, SEQ ID NO: 2, + phospho-IIA^Glc (Vibrio vulnificus, UniProt Q8DF91). Nature of the series: FrsA pyruvate decarboxylation in the presence of phospho-IIA^Glc. Format: biochemical.
Source text: as §1, §2, §3

The next series deals with CC(=O)C(=O)O. Briefly: FrsA-catalysed pyruvate decarboxylation, ADH/NADH coupled acetaldehyde assay. The class given is biochemical, Vibrio vulnificus. The note with it: other: wild-type FrsA, pH 7.0, 37° C., 1 nM FrsA. On the procedure:
FrsA enzymatic analysis was performed in 50 mM sodium phosphate solution (pH 7.0) containing 1 mM DTT and various concentrations of pyruvate. To measure the amount of acetaldehyde produced from pyruvate, 2 mM NADH and 3.7 U of […] was added to the FrsA reaction mixture (8). Cell lysates from wild-type E. coli and frsA mutants (9) were used in the range of 0.005 to 1 mg in amount. The acetaldehyde reaction was initiated by adding FrsA (1 nM) and incubated at 37° C. for 5 min and stopped by adding 50 mM potassium hydrogen phthalate buffer (pH3.0). The residual NADH in the reaction mixture was determined by measuring absorption at 340 nm. For CO2 measurement, FrsA enzyme reaction was performed in 50 mM Tris-HCl buffer (pH 7.0). The amount of carbon dioxide dissolved in the reaction solution was quantified by spectrophotometry after the reaction solution was treated with 10 mM calcium hydroxide (10). Concentrations of the pyruvate and acetaldehyde in the cell lysates and reaction mixtures were determined using Pyruvate Assay Lit (BioVision, USA) and Acetaldehyde UV-method kit (Roche, USA), respectively according to the manufacturer's instruction. To increase the sensitivity of the Acetaldehyde UV-method kit, the reaction mixture was additionally treated with dye (50 ml of 1.0% Tween 20 solution containing 40 mg iodonitrotetrazolium chloride and 10 mg phenazine methosulfate) followed by absorption measurement at 490 nm (11).
Values of Km and Kcat were calculated as follows. The concentration of reaction products were calculated in the mM unit from the absorption values which were obtained for a total of 1 min for each substrate concentration (S). Then initial reaction rate (Vo) for each concentration of the substrate was determined (here the unit is mM(product)/sec/mg(enzyme)). […] Keat value expressed in the unit of sec^−1 was calculated by changing the unit weight of the enzyme to the concentration in mM in the calculated Vmax (mM(product)/sec/mg(enzyme)).

Sequence of Vibrio vulnificus FrsA, wild type, SEQ ID NO: 2, + phospho-IIA^Glc (Q8DF91 whole entry): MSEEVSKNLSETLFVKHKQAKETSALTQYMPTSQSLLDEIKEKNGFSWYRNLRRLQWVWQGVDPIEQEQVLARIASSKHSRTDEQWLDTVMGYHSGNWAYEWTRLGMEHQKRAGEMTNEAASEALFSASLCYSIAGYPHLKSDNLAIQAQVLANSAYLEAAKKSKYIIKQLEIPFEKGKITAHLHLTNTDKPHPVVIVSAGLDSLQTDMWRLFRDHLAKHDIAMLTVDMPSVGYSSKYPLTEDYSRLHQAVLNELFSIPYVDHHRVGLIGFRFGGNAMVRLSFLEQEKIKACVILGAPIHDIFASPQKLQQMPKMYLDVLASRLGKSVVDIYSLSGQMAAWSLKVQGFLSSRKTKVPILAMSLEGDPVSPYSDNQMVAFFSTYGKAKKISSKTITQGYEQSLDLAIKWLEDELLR
Sequence of Vibrio vulnificus FrsA, wild type, SEQ ID NO: 2, + phospho-IIA^Glc (A0A3Q0L1G8 entry or part of it, further chain): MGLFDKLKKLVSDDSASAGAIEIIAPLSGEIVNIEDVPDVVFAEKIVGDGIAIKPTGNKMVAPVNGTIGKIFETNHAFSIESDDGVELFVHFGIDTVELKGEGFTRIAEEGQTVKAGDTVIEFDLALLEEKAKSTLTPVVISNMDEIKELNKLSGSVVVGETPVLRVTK
Sequence of Vibrio vulnificus FrsA, wild type, SEQ ID NO: 2, + dephospho-IIA^Glc (A0A3Q0L1G8 entry or part of it): as the sequence (A0A3Q0L1G8 entry or part of it, further chain) above
Sequence of Vibrio vulnificus FrsA, wild type, SEQ ID NO: 2, + dephospho-IIA^Glc (Q8DF91 whole entry): as the sequence (Q8DF91 whole entry) above

The Km is the substrate concentration at which the rate is half of its maximum. `CC(=O)C(=O)O` [pyruvate]: the Km stood at 390 ± 30 µM in series [1] and 390 ± 10 µM in series [2].
In general, kcat refers to the number of substrate molecules converted per active site and unit of time at saturation. As usually defined, the kcat/Km is the second-order rate constant that governs catalysis at low substrate concentration. For “Vibrio vulnificus FrsA, wild type, SEQ ID NO: 2 (Vibrio vulnificus CMCP6)”, in the series on CC(=O)C(=O)O, the Km is 390 ± 20 µM, the kcat was found to be 1372 ± 11 s⁻¹ and the kcat/Km amounted to 3.52e+06 ± 183000 M⁻¹ s⁻¹.

The values are drawn from patent publication US9567576B2, “Strain expressing FRSA and method for producing ethanol using same” (SOGANG UNIVERSITY RESEARCH FOUNDATION, priority 2012, dated 2017).
